Assay results as given in PMC10716780, “The multistep oxidation of cholesterol to pregnenolone by human cytochrome P450 11A1 is highly processive” (The Journal of Biological Chemistry, 2023).

Key:
human P450 11A1 [1] = target: T1, human P450 11A1 (Homo sapiens, UniProt P05108); assay: Steady-state kinetic assay with [1,2-3H]-cholesterol (radio-HPLC); format: biochemical; parameters: M A S T R S P R P F N E I P S P G D N; Met-Ala (N-terminal start residues in place of the transit peptide and Ile40) (N); made in house; host or cells: E. coli (P450 11A1 in C41(DE3); Adx and AdR in E. coli); details: ^3H-cholesterol substrate, triplicate
T1 sequence (P05108 41-521 limits assumed): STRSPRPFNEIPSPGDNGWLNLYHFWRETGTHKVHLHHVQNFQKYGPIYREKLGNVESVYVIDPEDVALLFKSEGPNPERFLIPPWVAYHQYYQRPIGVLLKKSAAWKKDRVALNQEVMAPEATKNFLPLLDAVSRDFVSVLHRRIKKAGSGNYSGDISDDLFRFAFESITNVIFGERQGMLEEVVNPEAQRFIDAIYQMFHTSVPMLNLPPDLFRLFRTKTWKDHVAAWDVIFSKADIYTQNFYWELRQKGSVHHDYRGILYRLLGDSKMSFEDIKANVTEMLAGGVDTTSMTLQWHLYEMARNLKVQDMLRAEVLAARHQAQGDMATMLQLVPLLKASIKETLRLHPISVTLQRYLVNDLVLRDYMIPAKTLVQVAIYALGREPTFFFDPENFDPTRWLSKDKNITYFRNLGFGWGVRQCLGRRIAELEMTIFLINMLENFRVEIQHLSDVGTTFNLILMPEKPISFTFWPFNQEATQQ
T1 sequence (P00257 59-186 partner): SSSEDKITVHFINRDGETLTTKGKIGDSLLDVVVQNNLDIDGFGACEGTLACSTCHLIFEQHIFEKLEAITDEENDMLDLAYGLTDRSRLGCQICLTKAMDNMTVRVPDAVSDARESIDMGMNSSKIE
Description: Samples (held at 4 °C) were injected (50 μl) using a Agilent 1100 Series HPLC system on a NovaPak (Waters) octadecylsilane (C18) 3.9 mm × 100 mm (4 μm) column (held at 25 °C) with a flow rate of 1.0 ml min^−1 using a gradient mobile phase of (A) H2O and (B) CH3CN as follows (all in % B, v/v): 0 min, 70%; 10 min, 100%; 35.5 min, 100%; 37 min, 30%; and 40 min, 70%). The flow rate was increased to 1.5 ml min^−1 (from the 10 min to 10.5 min interval) to decrease the retention of cholesterol and was later returned to 1.0 ml min^−1 (from the 35 min to 35.5 min interval) to prepare for the next injection. The column eluate was mixed (1:2, v/v) with FlowLogic U scintillation cocktail (LabLogic) and radioactivity (^3H) was detected using a β-RAM Model 5 radioflow detector (IN/US, LabLogic). Analytes were quantitated on the basis of their ^3H peak areas relative to the summed radioactivity of the four compounds of interest.
Figure S13. Steady-state kinetic assay of P450 11A1 with [1,2-^3H]-cholesterol. The enzyme reaction was performed in triplicate as described for the steady-state LC-MS assays, but with the use of ^3H-cholesterol (2 mCi mmol^-1) as the substrate. Product (^3H-pregnenolone) was detected by radio-HPLC as described (Experimental Methods). The highest rate measured was 6.7 ± 0.4 nmol product min^-1 (nmol P450)^-1.

[2] = target: T2, human cytochrome P450 11A1 (human, UniProt P05108 40-521); assay: other fluorescence titration; preformed 1:1 complex of P450 11A1 and cholesterol titrated into Alexa 488-Adx (50 nM) in 100 mM potassium phosphate pH 7.4; quenching of fluorescence (excitation 493 nm, emission 500-600 nm); quadratic fit; with cholesterol (equimolar to P450); details: both partners purified
T2 construct: cytochrome P450 11A1, human, recombinant, codon-optimized insert in pET23C(+); In one titration it was added as a preformed 1:1 complex with cholesterol; also called CYP11A1; P450scc; source: E. coli C41(DE3) with GroES/GroEL, purified (CHAPS solubilisation, Ni-NTA, dialysis)
T2 sequence (looked up): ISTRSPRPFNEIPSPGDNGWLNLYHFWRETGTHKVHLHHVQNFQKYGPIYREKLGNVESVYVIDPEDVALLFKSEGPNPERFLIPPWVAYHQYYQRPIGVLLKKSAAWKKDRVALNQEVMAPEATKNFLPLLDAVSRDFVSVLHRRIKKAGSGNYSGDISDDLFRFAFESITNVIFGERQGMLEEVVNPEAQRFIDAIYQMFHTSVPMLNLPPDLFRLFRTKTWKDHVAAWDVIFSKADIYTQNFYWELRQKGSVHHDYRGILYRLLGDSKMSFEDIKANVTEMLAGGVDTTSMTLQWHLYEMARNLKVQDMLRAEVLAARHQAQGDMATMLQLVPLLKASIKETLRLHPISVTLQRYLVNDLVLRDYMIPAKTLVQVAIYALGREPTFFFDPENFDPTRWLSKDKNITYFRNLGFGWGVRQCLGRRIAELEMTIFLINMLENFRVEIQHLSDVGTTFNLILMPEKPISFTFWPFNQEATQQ

[3] = target: T2, human cytochrome P450 11A1; assay: other fluorescence titration; P450 11A1 (0-0.4 uM) titrated into Alexa 488-Adx (50 nM) in 100 mM potassium phosphate pH 7.4; quenching of fluorescence (excitation 493 nm, emission 500-600 nm); quadratic fit; without cholesterol; details: both partners purified
human P450 11A1 [4] = tested on: human P450 11A1; parameters: method as in PMID 33271253; details: surface plasmon resonance, human ref 46; read-out: Kd of P450 11A1-Adx complex, without sterol; cited from earlier work
bovine P450 11A1 = tested on: bovine P450 11A1; parameters: method as in PMID 15181009; details: surface plasmon resonance, bovine ref 47; read-out: Kd of P450 11A1-Adx complex, without sterol; cited from earlier work

In the case of [3H]C1C([3H])[C@@]2(C)C(=CC[C@H]3[C@@H]4CC[C@H]([C@H](C)CCCC(C)C)[C@@]4(C)CC[C@@H]32)C[C@H]1O (some centres unmarked) [[1,2-^3H]-cholesterol, [1,2-^3H]-Cholesterol], the highest rate measured (human P450 11A1 [1]) is reported as 6.7 ± 0.4 nmol product min^-1 (nmol P450)^-1.

B1: Alexa Fluor 488-labeled adrenodoxin (natural protein, bovine, UniProt P00257 59-186, looked up)
chain: T1 sequence (P00257 59-186 partner)
modifications: Alexa Fluor 488 label (site not stated)
notes: also called Alexa 488-Adx; Adx
B1 gave a Kd [2] of 8.2 nM and a Kd [3] of 38 nM.

B2: Adx: adrenodoxin, soluble iron-sulfur electron donor protein (recombinant bovine); used fluorescently labeled as Alexa 488-Adx (protein)
chain: T1 sequence (P00257 59-186 partner)
modifications: Alexa Fluor 488 label (site not stated)
notes: adrenodoxin, soluble iron-sulfur electron donor protein (recombinant bovine); used fluorescently labeled as Alexa 488-Adx
For B2, the Kd (human P450 11A1 [4]) is given as 24 nM and the Kd (bovine P450 11A1) is given as 13.4 nM.
